Laboratory results published in patent publication US20240216536.

Columns and labels:
[1] = biological target: T1, His-S5A substrate (E6AP Ubiquitin Ligase Kit-S5a Substrate, Boston Biochem #K-230), P55036
T1 chain: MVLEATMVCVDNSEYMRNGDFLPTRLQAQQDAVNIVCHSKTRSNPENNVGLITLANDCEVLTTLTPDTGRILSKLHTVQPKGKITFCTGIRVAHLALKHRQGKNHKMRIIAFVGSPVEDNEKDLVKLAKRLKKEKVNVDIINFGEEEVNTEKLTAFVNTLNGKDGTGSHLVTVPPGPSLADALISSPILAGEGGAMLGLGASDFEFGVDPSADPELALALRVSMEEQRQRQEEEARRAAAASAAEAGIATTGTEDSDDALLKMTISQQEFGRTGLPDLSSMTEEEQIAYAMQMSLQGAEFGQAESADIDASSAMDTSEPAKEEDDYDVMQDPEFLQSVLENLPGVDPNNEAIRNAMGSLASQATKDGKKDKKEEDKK

B1: rat UBE3A protein (endogenous, from wild type rat cerebrospinal fluid and hippocampal dialysate) (protein)
chain: MATACKRSSGESQSEDIEASRMKRAAAKHLIERYYHQLTEGCGNEACTNEFCASCPTFLRMDNNAAAIKALELYKINAKLCDPHPSKKGASSAYLENSKGASNNSEIKMNKKEEFKEVDYLTEEKVYEIYEFCREREDYSPLIRVIGRIFSSAEALVQSFRKVKQHTKEELKSLQEKDEDKDEDEKEKAACSAAAMEEDSEASSSRMGDSSQGDNNVQKLGPDDVTVDIDAIRRVYSSLLSDEKIETAFLNALVYLSPNVECDLTYHNVYTRDPNYLNLFIIVMENRNLHSPEYLEMALPLFCKAMSKLPLAAQGKLIRLWSKYSADQIRRMMETFQQLITYKVISNEFNSRNLVNDDDAIVAASKCLKMVYYANVVGGDVDTNHNEEDDEEPIPESSELTLQELLGEERRNKKGPRVDPLETEIGVKTLDCRKPLISFEEFINEPLNDVLEMDKDYTFFKVETENKFSFMTCPFILNAVTKNLGLYYDNRIRMYSERRITVLYSLVQGQQLNPYLRLKVRRDHIIDDALVRLEMIAMENPADLKKQLYVEFEGEQGVDEGGVSKEFFQLVVEEIFNPDIGMFTYDEATRLFWFNPSSFETEGQFTLIGIVLGLAIYNNCILDVHFPMVVYRKLMGKKGTFCDLGDSHPILYQSLKDLLEYEGNVEDDMMITFQISQTDLFGNPMMYDLKENGDKIPITNENRKEFVSLYSDYILNKSVEKQFKAFRRGFHMVTNESPLKYLFRPEEIELLICGSRNLDFQALEETTEYDGGYTRESVVIREFWEIVHSFTDEQKRLFLQFTTGTDRAPVGGLGKLKMIIAKNGPDTERLPTSHTCFNVLLLPEYSSKEKLKERLLKAITYAKGFGML
ubiquitination assay western blot (self-ubiquitination of UBE3A): the UBE3A protein present in both the CSF and hippocampal dialysate were active in ubiquitinating both the S5A substrate and UBE3A
ubiquitination assay western blot (S5A band shift over time) [1]: the UBE3A protein present in both the CSF and hippocampal dialysate were active in ubiquitinating both the S5A substrate and UBE3A
ubiquitination assay western blot after immuno-depletion of UBE3A (S5A band intensity) [1]: With UBE3A protein immuno-precipitated, UBE3A protein was not detected and the S5A band intensity remained unchanged over time
